The text below walks through data of patent US10975167B2, “Method to reduce pulmonary arterial hypertension by administering inhibitors of nicotinamide phosphoribotransferase” (Arizona Board of Regents on Behalf of the University of …, priority 2017, dated 2021).

For test [1], the system named is hPASMCs. Nature of the test: TUNEL apoptosis assay in hPASMCs. To be noted: H2O2 100 μM + rhNAMPT 20 μg/ml, 24 hrs. Type of test: cell-based, human. How it is done: hPASMCs were cultured on a coverslip in a 6-well cell culture plate. H2O2 (100 μM, Sigma, Cat. #ab66110) was used as an apoptosis stimulus for hPASMCs.
When cell confluence reached 95%, cells were starved for 3 hrs and stimulated by H2O2, FK866 (10 μM), H2O2+rhNAMPT (20 μg/ml) or H2O2+rhNAMPT (20 μg/ml) with FK866 (10 μM) for 24 hrs. Cell apoptosis was examined using an in situ BrdU-Red DNA fragmentation (TUNEL) kit. The cells on the coverslips were examined using a Nikon Eclipse E800 fluorescence microscope, and the images were processed by MetaMorph software (Molecular Devices, Inc.). Approximately ten images were taken from each condition, and over 500 cells were counted according to DAPI staining.

In a further test the test system is human lung SMCs. The experiment in a line: Store-operated Ca2+ entry and STIM2/Orai2 expression in human lung SMCs. Type of test: cell-based. To be noted: 48 hr. How it is done: Recombinant NAMPT protein (CY-E1251) was obtained from MBL Lifescience. Solubilized protein lysates isolated from lung tissues and cells were used to detect NAMPT, STIM2, ORAI2 and actin as previously described. Cells were lysed in a modified radioimmunoprecipitation assay (mRIPA) lysis buffer with a protease and phosphatase inhibitor cocktail (Sigma Aldrich, St. Louis, Mo.), and protein quantification and Western blot analysis were performed according to standard procedures.
Human Primary Pulmonary Artery Smooth Muscle Cells (hPASMCs) from control and PAH patients were obtained and isolated as previously described from Lonza (CC-2581 and CC-2530) were used for cell transfection and proliferation assays.
[Ca2+]cyt was measured in PASMC loaded with fura-2 (4 mM) in a Nikon digital fluorescent imaging system. Cells were loaded with 4 μM fura-2 acetoxymethyl ester (fura-2/AM) for 60 min at 25° C. and [Ca2+]cyt was measured using a ratiometric method at 32° C. Cyclepiazonic acid (CPA, a specific Ca2+-ATPase inhibitor) was used to induce store-operated calcium entry (SOCE).

For test [2], the system named is hPASMCs. Nature of the test: Transwell migration and wound healing assays. In kind it is cell-based, human. To be noted: rhNAMPT 20 μg/ml. The method, then: For quantitative data from transwell migration assays (ANOVA P<0.05). 50,000 cells were added into Falcon™ Cell Culture Inserts (Fisher, Cat. #08-771-12) with 8-μm pores in 1 ml of basal medium and 250 μl on the top of the transwell. Cells were then stimulated by vehicle, rhNAMPT (20 μg/ml) with or without FK866 (10 μM) for 48 hrs. Unmigrated cells were then scraped from the top of the filter and the migrated bottom layer of cells were stained by 1% aqueous Crystal Violet solution (Electron Microscopy Sciences, Cat. #RT 26088-10). The transwell bottom was gently separated by a blade and put on a glass slide for imaging.
The migrated cells were counted and quantified. Images were taken by an Olympus BX51Fluorescence Microscope and processed by DPController Software (Oylmpus IMS).
In wound healing assays, approximately 0.5 million human Primary Pulmonary Artery Smooth Muscle Cells (hPASMCs) were seeded to 6-well cell culture plates, a straight line was scratched using a 200-μl pipette tip after cells reached 100% confluence. Three dots were labelled beside each line. […]
Image J software was used to measure the wound line width for all the three spots labeled in each line. Wound closure %={[width (start point)-width (end point)]/width (start point)}×100% was calculated (ANOVA P<0.05).

The next test deals with human lung SMC. Nature of the test: BrdU proliferation of human lung SMC exposed to recombinant NAMPT. To be noted: 1, 5, 20 μg/ml. In kind it is cell-based. How it is done:
Cell proliferation was determined using either a 5-bromo-2′-deoxyuridine (BrdU) incorporation assay or cell counting. BrdU assays (QIA58, Calbiochem, San Diego, Calif.) were performed in a 96-well format according to manufacturer's instructions, using starting cell densities of 4000 cells/well. For cell counting, cells were trypsinized and resuspended after experimental procedures; densities were counted with a TC10™ automated cell counter (Bio-Rad). FBS or PDGF was used as positive controls.

B1: rNAMPT: Recombinant NAMPT protein (CY-E1251) from MBL (protein)
chain: MNPAAEAEFNILLATDSYKVTHYKQYPPNTSKVYSYFECREKKTENSKLRKVKYEETVFYGLQYILNKYLKGKVVTKEKIQEAKDVYKEHFQDDVFNEKGWNYILEKYDGHLPIEIKAVPEGFVIPRGNVLFTVENTDPECYWLTNWIETILVQSWYPITVATNSREQKKILAKYLLETSGNLDGLEYKLHDFGYRGVSSQETAGIGASAHLVNFKGTDTVAGLALIKKYYGTKDPVPGYSVPAAEHSTITAWGKDHEKDAFEHIVTQFSSVPVSVVSDSYDIYNACEKIWGEDLRHLIVSRSTQAPLIIRPDSGNPLDTVLKVLEILGKKFPVTENSKGYKLLPPYLRVIQGDGVDINTLQEIVEGMKQKMWSIENIAFGSGGGLLQKLTRDLLNCSFKCSYVVTNGLGINVFKDPVADPNKRSKKGRLSLHRTPAGNFVTLEEGKGDLEEYGQDLLHTVFKNGKVTKSYSFDEIRKNAQLNIELEAAHH
Regarding B1, the “hPASMC apoptosis (TUNEL positive cells)” value in the test with hPASMCs [1] is given as “inhibits”. In addition, the “cyclopiazonic acid (CPA)-mediated store-operated Ca2+ entry (SOCE)” value with human lung SMCs (20 μg/ml) is recorded as “augments”. For the same molecule, in the test with human lung SMCs, the “expression of Orai2” value is listed as “increases” and the “expression of STIM2” value is “increases”. For the same molecule, in the test with hPASMCs [2], the “human PASMC migration” value is listed as “promotes”. Further, in the test on human lung SMC, the “human lung SMC proliferation” value is “dose-dependently stimulating”.
